Test results taken from patent US20240036044A1.

Target: recombinant SARS-CoV-2 Spike protein antigen (Z03501, Genscript) (SARS-CoV-2) (UniProt P0DTC2)

Monoclonal antibody against the SARS-CoV-2 Spike protein (A02038, Genscript)
Kd: 2.39 nM
koff: 0.000603 s⁻¹
kon: 252000 M⁻¹ s⁻¹
